Data taken from PMC8930179.

Molecular target: B38-CAP
Assay: SEC

## B38-CAP (enzyme)
  stoichiometry N: 2
